Data taken from paper PMC5943153 (Molecular microbiology, 2018).

T1: T25-HP0221 (NifU) (Helicobacter pylori strain 26695, UniProt O25009 2-326)
T1 sequence (looked up): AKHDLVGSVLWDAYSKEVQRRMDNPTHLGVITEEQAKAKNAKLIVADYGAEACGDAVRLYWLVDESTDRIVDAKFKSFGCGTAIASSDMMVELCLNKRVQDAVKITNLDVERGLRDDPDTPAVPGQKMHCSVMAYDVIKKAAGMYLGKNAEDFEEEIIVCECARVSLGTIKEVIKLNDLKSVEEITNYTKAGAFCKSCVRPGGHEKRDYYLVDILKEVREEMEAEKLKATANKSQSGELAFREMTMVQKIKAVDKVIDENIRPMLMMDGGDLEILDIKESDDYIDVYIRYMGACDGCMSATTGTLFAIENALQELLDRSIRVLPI

T2: HP0221-T25 (NifU) (Helicobacter pylori strain 26695, UniProt O25009 2-326)
T2 sequence (looked up): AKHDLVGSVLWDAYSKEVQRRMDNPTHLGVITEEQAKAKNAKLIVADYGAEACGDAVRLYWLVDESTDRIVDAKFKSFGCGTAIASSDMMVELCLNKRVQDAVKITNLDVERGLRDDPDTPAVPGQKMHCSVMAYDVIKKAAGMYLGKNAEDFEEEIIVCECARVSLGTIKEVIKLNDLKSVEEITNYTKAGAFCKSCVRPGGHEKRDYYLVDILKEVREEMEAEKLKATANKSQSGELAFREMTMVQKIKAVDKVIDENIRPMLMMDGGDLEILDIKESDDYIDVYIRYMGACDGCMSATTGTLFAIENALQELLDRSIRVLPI

T3: T25-HP1492 (Nfu) (Helicobacter pylori strain 26695, UniProt O26025 2-89)
T3 sequence (looked up): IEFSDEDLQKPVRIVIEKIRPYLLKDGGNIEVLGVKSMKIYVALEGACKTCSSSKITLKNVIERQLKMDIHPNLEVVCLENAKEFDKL

B1: T18-HP1540 (natural protein, Helicobacter pylori strain 26695, UniProt O26065 2-167, looked up)
chain: ADIQRRDFLGMSLASVTAIGAIASLVAMKKTWDPLPSVVSAGFTTIDVANMQEGQFSTVEWRGKPVYILKRSKKEGFNEKRDFKVGESVFTTAIQICTHLGCIPTYQDEEKGFLCPCHGGRFTSDGVNIAGTPPPRPFDIPPFKIEGTKITFGEAGAEYKKMMAKA
B2: T18-HP0666 (natural protein, Helicobacter pylori strain 26695, UniProt O25377 2-433, looked up)
chain: NENINENIFEEVGDACVKCAKCVPGCTIYRIHKDEATSPRGFLDLMRLNAQNKLQLDTNLKHLLETCFLCTACVEICPFHLPIDTLIEKAREKIAQKHGIAWYKKSYFSLLKNRKKMDRVFSTAHFLAPCVFKQVGDSLEPRAVFKGLFKRFKKSALPPLNQKSFLQKHAEMKLLENPIQKVAIFIGCLSNYHYQQVGESLLYILEKLNIQAIIPKQECCSAPAYFTGDKDTTLFLVKKNIEWFESYLDKVDAIIVPEATCASMLINDYYKVFLGEKDKDLYVKRLEKITPKIYLASVFLEKHTPLKSLLEKIPKGKKETITYHNPCHAKKTLNAHKEVRNLLNLHYEIKEMPDNCCGFGGITMQTQKAGFSLKVGLLRAKEIIDTKAAILSAECGACHMQLNNALKSLDDPNTPPFLHPLELIAKALKSAE
B3: T18-HP0221 (natural protein, Helicobacter pylori strain 26695, UniProt O25009 2-326, looked up)
chain: AKHDLVGSVLWDAYSKEVQRRMDNPTHLGVITEEQAKAKNAKLIVADYGAEACGDAVRLYWLVDESTDRIVDAKFKSFGCGTAIASSDMMVELCLNKRVQDAVKITNLDVERGLRDDPDTPAVPGQKMHCSVMAYDVIKKAAGMYLGKNAEDFEEEIIVCECARVSLGTIKEVIKLNDLKSVEEITNYTKAGAFCKSCVRPGGHEKRDYYLVDILKEVREEMEAEKLKATANKSQSGELAFREMTMVQKIKAVDKVIDENIRPMLMMDGGDLEILDIKESDDYIDVYIRYMGACDGCMSATTGTLFAIENALQELLDRSIRVLPI
B4: T18-HP0734 (natural protein, Helicobacter pylori strain 26695, UniProt O25434 2-439, looked up)
chain: QVKENKQLCLISLGCSKNLVDSEVMLGKLYNYTLTNDAKSADVILINTCGFIESAKQESIQTILNAAKDKKEGAILIASGCLSERYKDEIKELIPEVDIFTGVGDYDKIDIMIAKKQNQFSEQVFLSEHYNARIITGSSVHAYVKISEGCNQKCSFCAIPSFKGKLQSRELDSILKEVENLALKGYTDMTFIAQDSSSFLYDKGQKDGLIQLIRAIDKQQALKSARILYLYPSSTTLELIGAIESSPIFQNYFDMPIQHISDSMLKKMRRNSSQAHHLKLLDAMKQVKESFIRSTIIVGHPEENESEFEELSAFLDEFQFDRLNIFAFSAEENTHAYSLEKVPKKTINARIKALNKIALKHQNHSFKALLNKPIKALVENKEGEYFYKARDLRWAPEVDGEILINDSELTTPLKPGHYTIAPSEFKDNILLAKVLSPF
B5: T18-HP1268 (natural protein, Helicobacter pylori strain 26695, UniProt O25858 2-220, looked up)
chain: AKQEYKQLPKRAEVHSATEQFKDTVKTSLGLDLFKGLGLTIKEFFSPSVTIHYPMEQLPLSPRYRAVHNLQRLLDSGSERCIGCGLCEKICTSNCIRIITHKGEDNRKKIDSYTINLGRCIYCGLCAEVCPELAIVMGNRFENASTQRSQYGSKSEFLTSEQDAKNCSHAEFLGFGAVSPNYNERMQATPLDYVQEPSKEESQEETPTNPESNKGDENV
B6: T18-HP1089 (natural protein, Helicobacter pylori strain 26695, UniProt O25721 2-778, looked up)
chain: NLEKLFLEKTPLFVFSSTRRLKHFYLEQGEGFLPNAMSMGNFFEQAFYIPNKKKIPNSARLILMIDTIKAIAKEKKSILEGLLLFENSFLGYLESTSFLFDLFDELSSACIKLNELSSKDIYLDYEKHLEVLEMIYDRYIKKLEGLGFYDKIMQEKPAILKEFFEHFSSIEWHLDGFMSVFERQCLLEAAELVPITLHLSCDKYNQKFLEFLNLKLETDCDYSIDFKTQKILSQTPKRQKIEPKLYANSSYLKQSALVLQTIEEYLQKDNDPNKMAIITPNADFLPFLKLLDKNNNLNFAMGLGAKNSPYYTELVKILEDLETSDLDLSGSALLDLENITLALLEQQSSKEKAPLKEAHSQIMHQYHLLKDTLKNYSLKDLLHLYLQEFEANFRLDDSSGGKIRVMDTLETRGMQFDKIVIVDFNETCVPSLKDCDLFLNSALRKSLNLPTLLDKKNLQKHYYYQLFKNSKEITLSYIESETSKASNMLLELNLHIEPIKDAYTLFAPSPLKDYQEEEIKAAIPKDFSFSASSLNAFLTCKRRFYYHYIKRFKESPKDENNSAVGSLLHELLKEAYEKDKTPHALEERLIWLLETRENITPKERLDTLVVLKKIQAFYKKERERFNAEITILDLEKSFETIIQGVIFKGRIDRIDKTADNEIILLDYKFKSDLKLDSMSKTQRGGLSPIEIAQISTDYQMAIYAFALKNLGYKEPIKAFFYDLRKGELLEEEELILQAKMDHLEFSLIPKLKQEIDFEKTLEVKDCEYCSFKDMCNR
B7: T18-HP0568 (natural protein, Helicobacter pylori strain 26695, UniProt O25292 2-255, looked up)
chain: PLELFEKVCKEVAPLTQMITLHVLGDPCKLKNLNHYLSTARRFSLKVDLVTSGVYLHDFETLLQDVIYQISISLDAGLDHRNKLNQHRYIQKILEFCRYKCEKNSEVFLNLRIQDSTLDKHQNLIKPFLESFECVSLEGLKTQGRARLFKKSFLNIQKTFKWPSLNAQNPLNQKSKIPYCYGLIKQIAILSNGVVVPCCMDTQANISLGDLNHTPLKDVLKSQKAMAIKTHFLKGEALELLCQNCSYPLIRYKK
B8: T18-HP1428 (natural protein, Helicobacter pylori strain 26695, UniProt O25970 2-357, looked up)
chain: KASIYDFTLKELSQLLKPSFRAKQLYLWLYAKYKTSFKDMQNNFSKDFIAYLEREFALRTIEITHVRESVDGSKKYLFKSLRDNHTFEAVLLKMKDKKIDAETNAILEREKYTVCVSCQIGCQVGCSFCFTQKGGFVRNLKASEIIQQALLIKEDNNLPLEKALNIVFMGMGEPLNNLDEVCKAIEIFNTGMQISPKRITISTSGVADKIPILAGKNLGVQLAISLHAVDDKTRSSLMPLNKKYNIECVLNEVRKWPLEQRKRVMFEYLLIKDLNDSLDCAKKLLKLLNGIKSKVNLILFNPHEGSKFERPSLENARMFADFLNSKGLLCTIRESKALDIEAACGQLREKKLSQQI
B9: T18-HP0277 (natural protein, Helicobacter pylori strain 26695, UniProt O25054 2-84, looked up)
chain: SLLVNDECIACDACREECPSEAIEEGDPIYNIDPDRCTECYGYDDDEPRCVSVCPVDAILPDPNNAESKEELKYKYESLKEQD
B10: T18-HP0132 (natural protein, Helicobacter pylori strain 26695, UniProt P56072 2-455, looked up)
chain: ASFSILSIFKIGVGPSSSHTIGPMEAGARFCESLKGILEQVVRVQITLHGSLALTGKGHLSDEAVLIGLHGIYANELEVTTKKALLHEALENKVLKLANQHHIPFDYAKDLIFDNKPLTRHQNALILKAFNSKNEVLKEETYYSVGGGFVYTEKELDNLSEEDGNESIAYDFSSAKELLELCQKHQKSIAEIVRLRENALKNHPDATMVKIYHAMLECYDNGANSKERYLPGSLKVTRLAPSIKTRLEKHPTSGKDPLALIDYISLYARAIAEENASGGKVVTAPTNGACAVVPSVLLYAKNHLFENLSQKAINDFLLTSAAIGYLYKKNASLSGAEAGCQAEIGVASSMAAGGLAHLCQATTQQVLIASEIAMEHHLGLTCDPVGGLVQIPCIERNVLGAIKAISASKLALEDEYKPKVSLDEVIATMYATGKDMNEKYKETSLGGLAKTLKC
B11: T18-HP0585 (natural protein, Helicobacter pylori strain 26695, UniProt O25307 2-218, looked up)
chain: KMGLKRAKTHQKAQQIKELLLKHYPNQTTELRHKNPYELLVATILSAQCTDARVNQITPKLFEKYPSVNDLALASLEEVKEIIKSVSYFNNKSKHLISMAQKVVRDFKGVIPSTQKELMSLDGVGQKTANVVLSVCFDANCIAVDTHVFRATHRLGLSNAKDPIKTEEELSDLFKDNLSKLHHALILFGRYTCKAKNPLCGACFLKEFCVSKASFKA

Experiments:
Test in all cases: two-hybrid
T25-HP0221 (NifU) = target: T1, T25-HP0221 (NifU)
HP0221-T25 (NifU) = target: T2, HP0221-T25 (NifU)
T25-HP1492 (Nfu) = target: T3, T25-HP1492 (Nfu)
T25-HP0220 (NifS) = T25-HP0220 (NifS) (Helicobacter pylori strain 26695, UniProt O25008 2-387)

Row | Binder | growth OD595 in M63-maltose (T25-HP0221 (NifU)) | growth OD595 in M63-maltose (HP0221-T25 (NifU)) | growth OD595 in M63-maltose (T25-HP1492 (Nfu)) | growth OD595 in M63-maltose (T25-HP0220 (NifS))
1 | B1 | 0.24 OD595 | 0.44 OD595 | 0.17 OD595 | 
2 | B2 | 0.48 OD595 | 0.11 OD595 |  | 
3 | B3 |  |  | 0.08 OD595 | 0.12 OD595
4 | B4 | 0.4 OD595 | 0.48 OD595 | 0.12 OD595 | 
5 | B5 | 0.33 OD595 | 0.22 OD595 | 0.18 OD595 | 
6 | B6 | 0.26 OD595 | 0.29 OD595 |  | 
7 | B7 | 0.13 OD595 | 0.36 OD595 | 0.14 OD595 | 
8 | B8 | 0.15 OD595 | 0.27 OD595 | 0.08 OD595 | 
9 | B9 |  |  | 0.4 OD595 | 0.3 OD595
10 | B10 | 0.21 OD595 | 0.14 OD595 | 0.27 OD595 | 
11 | B11 | 0.21 OD595 | 0.15 OD595 | 0.06 OD595 | 
